Measurements published in article PMC11437077.

Target: mouse PD-1 wild type expressed on CHO cells (mouse) (UniProt Q02242)
Experiment: biomembrane force probe (BFP), force-ramp spectroscopy (rupture force); PD-L1- or PD-L2-coated glass bead on a micropipette-aspirated RBC against a CHO cell expressing PD-1; continuous retraction until bond rupture; nominal loading rate 1000 pN/s; BFP spring constant 0.3 pN/nm

Chain of mouse PD-1 wild type expressed on CHO cells (mouse) (Q02242 25-288): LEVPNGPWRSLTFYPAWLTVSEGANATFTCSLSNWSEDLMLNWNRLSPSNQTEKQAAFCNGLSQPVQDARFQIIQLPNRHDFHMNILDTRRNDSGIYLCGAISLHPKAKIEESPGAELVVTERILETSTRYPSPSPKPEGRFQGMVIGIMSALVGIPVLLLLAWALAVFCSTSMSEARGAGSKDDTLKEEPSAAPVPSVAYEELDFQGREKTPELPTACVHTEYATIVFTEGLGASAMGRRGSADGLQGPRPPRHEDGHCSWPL
Chain of mouse PD-L2 with C-terminal biotin (Q9WUL5 20-221): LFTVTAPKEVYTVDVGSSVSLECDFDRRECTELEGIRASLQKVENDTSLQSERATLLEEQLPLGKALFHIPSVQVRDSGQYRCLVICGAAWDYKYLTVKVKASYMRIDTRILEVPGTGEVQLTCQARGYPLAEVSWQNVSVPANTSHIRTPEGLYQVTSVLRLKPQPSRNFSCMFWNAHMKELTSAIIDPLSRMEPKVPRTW

F1/2 (force at which 50% of the bonds rupture): 12.1 pN
Substance: mouse PD-L2 with C-terminal biotin (from UniProt Q9WUL5 20-221) (ligand)
